Measurements published in the domain aggregation screens of Martell et al. (2025).

assay: soluble fraction after stress (log2 fold change); higher = more stays soluble; pooled small domains, quantitative proteomics; conditions: stress: pH 4
Summary of the method: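 Aggregation propensity is estimated from the fold change in each domain's soluble amount after acid stress. Pooled small-domain libraries were stressed at pH 4, and higher log2 values mean more stayed soluble.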

Row | Sequence | soluble fraction (log2)
1 | HMTEKIEWYKEVLELEPNSKVFFPLARMLAEEQRFDEAVAVLEHGLERHGEFLEARLFFIELLHET | -2.04
2 | HMTEKQYIYSIGDRVNIGTDEFEIVNINEKEVSIADVTFPMLVKQISYEEFDRKVKENPFNDHLII | -1.25
3 | HMTEKSTRSVPQEHEGKRLDVAAALLFPVYSRSELARRIDAGYLLLNGKGSTPKTKVHELDLIELLEV | -1.65
4 | HMTELKKTAVDTWVKDLGTEQALAKLDTLAVVKLRRLAREYKAFGIAGRAISKADKGMLLAEFRAYYEN | 0.171
5 | HMTETSKLTDAKQLLESILSSGEVSYKDIISAAEEYEIGKRTLMSAKALLSIESIKKTDGWYWTLPH | -0.0778
6 | HMTEVPSLSSLKIGDLIFYRNNKGAIAHSAIITSFYNGRPFISQHTFNALNITYVKDWASKMHFIKIW | -0.934
7 | HMTEWDDATVKDAVEYFMSVNGRVPTVTDFKKENGLPSHPVIKQRYKINLHEWLNKNFPTYY | -1.19
8 | HMTFEPVYDENSRILILGTFPSVKSREQQFYYGHPQNRFWKLLAALTGWKVPKTISEKKELLLQNGIA | -0.665
9 | HMTFFDDLLYQAKAAVDNDPSIKPSLHNRAIIEILYQQGVFNMKNAVEHVAELLEISKNTVYLHLRSVKG | -0.976
10 | HMTFGEMLQYTNRLKEILESNAPQSIKDRRLANLMTDLEQAYGIPILRDQEFEKENPFLMQLYRTIS | -1.36
11 | HMTFKDIMENYTISRIENTINSAVVFLDEINAYITIDKTQLPSNLRYDTDSKIMASQIPDDAKIKYFMIYW | -1.61
12 | HMTFPIDINRADTEQLTALPGIGEVLAKRIIAYREENGSFLSTDELKNVEGIGEKRLEAIVDLITIG | -0.935
13 | HMTFSDKIRELRKQKGVSQAVVAEYLGITKQAYSLYETGKREPDFDSLLKLAEYFGTDTDSLLY | -0.379
14 | HMTGEEVLIMLGEKMKLIRNYNGYSQRQIAEILKIERSTYASYETGRNRPDIFAVQRFAKIFNVSVDYIL | -0.877
15 | HMTGELEVTAAGLSPEKLLNLAAKNHITLSNVKRLSYTQLSFRIGPADYNRLKKLLPEGRYKLNVGSS | -0.0957
16 | HMTGESIPFSKFLSEVDSGRVINVEIQGNNISGLLSDGNKFKTYSPNYPNLVEILSEKEVSIVATPLE | -0.166
17 | HMTGGLTQEQISQLRMLTPQQIEQLRQLQPQQVEMLRQLRPEQVMLLTQLEPQQIMAFMRLEPSVIMQL | -0.657
18 | HMTGGMVTYIIEKGEGFFSLERKFGLSENELIKLNPSLKSGLKSEMQINIPKENYDRYVASS | 0.206
19 | HMTGIESVKPSSDFTVEGNRIVAGDAEVEVYDLAGRKVNNNNLTTGVYIAKIAGSAESVKVFV | 0.22

Row | Sequence | soluble fraction (log2)
20 | HMTGIQDVPALETRRVGNTFFFDRATDVQVYDLQGRLLQQARKVTSVSIGHLQQGVYVLTDGRASVKVQ | -0.7
21 | HMTGIQLNDRERAILQHLSDGLTTKAIAERIFLREDTVKWYRKNLLARFEQPIVAALVKWAVLEGLV | 0.409
22 | HMTGIVVVDVVGQVGRPGLVSLPAGSRVADAITAAGGATPEADVSLLNQARLVIDGEQIRVPRPGEVIAA | 0.22
23 | HMTGKVSHGERKSVLVSLAGSMRARGMSIDAVRAGLYADNEKRFDPPLDERDIEDVLNSAKKWGDP | -0.0814
24 | HMTGMDALIGRRVFVSEEILPGDAGGRVAVDGDSWRAISVGTAKPIPAGTEVRIHGYKSLILEVEPI | 0.0974
25 | HMTGQHFDLEDTDGNLVYEIDSTVPLKTFYIYDAMHTEIFRMTKELLHALPTYRFYLYGEPYGVLKKQ | -0.52
26 | HMTGRVKWYDATKGFGFVTSDEGGDVFLPKGALPAGVADLKTGQRIEFGVVDSRKGAQALGVK | -0.22
27 | HMTGSAETRGITLTDEQVTVWAKDGSWANYVYRATDGNWYDGSGRLYYENGGGEWTQAATGEQGS | -1.68
28 | HMTGSALDATIEKLLDLGSKAGSVTEDEIQIVLKNVDVTDAQLSSIYQFLRDRGVEIVSATEDDD | -1.38
29 | HMTGVPYLVRVKITDLHIRSGPGTNYASKGFIAPGAYTIVEESTGQGAALWGKLKSGKGWIALGYTEK | 0.0451
30 | HMTHAISKTYAVTGEQLKNGFTLTHTFANGSTRRVDVYPGSRSGKVIAVRNTTDDTTEWIRIVEG | -0.0152
31 | HMTHSEYVGRHGIAATSLRPAGAATIDGSRVDVVTSGEYIEKGTPIEVMTVNGSTVRVKAVPQIP | 0.08
32 | HMTIDANAIEKMVLDLIGEHPNEWGRYRDGDKKVQGFFVGQIMKATSGQADGKIVNQILSQHAEA | 0.126
33 | HMTIELAEGQHFLQISKSGAPMGNVVRDLIIQTLKITNGNQIKAAKILGISRAKLRYRIEQLGINITGKNI | -0.0446
34 | HMTIERVKIKETPTGWLRVRETPDNNGSEIGRANVGEIYELLGSKGEWYHIVYKGKQGFISTKYAEKVL | -0.124
35 | HMTIGEALLNLRKQLGLNQTEMAANVVSTSFYSKVERNIHDIGTKDLLQILNKHQINATYFFENLN | -0.446
36 | HMTIHVMEIKSLLPIKILDESQHLVQSFSSKNPTSYNYRLIFSDKSKLENIKKTINENKDVESIEIRYA | -0.436
37 | HMTILTSSQRKALISKMIRQGGVESQSHLVKLLAREGVKVTQATASRDLEDLGATRVRDANGEFQYVIP | 0.0156
38 | HMTINQIDPASGRKVGYWIITGEMKPKEGFSPDNKIEEGIYVNSRKSGKWIKYWPNGNVRSEIIYKNGR | -0.0109
